Biological target: the molecule itself
Experiment: cryo-EM structure

B1: TssAVC (TssA of Vibrio cholerae, VCA0119), purified (natural protein)
chain: MEMTEYRQCVAKPISSSNPVGERLVDHPLFDFIEDQMMKVGSLSHASVQWDEVEHSTLKLLGEQSKDIKLLVYLLQCLHNQVTPTRLITSFAVMSEFLNQYWNDSYPAPGPRGNLPRRKFFSQMAQRFTTVIEKFDFHHLDEADRQALQAAVEEWQQAVEKQGLSSELVESVVVRITAEIKRAEQRQQVTAQSSAERETPSAATPSPAASMVVDHSSDKAAKQTLLKVADFLAEQEFGIALSIRLRRFAVWGSITSLPDHKPDGETLLRGMQADRVKDYQDQLRHPDLALWRKVEQSLTMAPYWFEGQWMSYTIAQQLGKSDWCQAIAEETQQFLRRLPSLLELKFKGGEPFVSDSVKEWLASVGQSQGAAGQSVGGDWQEKRKEAFQLAKEGGIAVALSMLNDGLVSAVEPRDKFYWRLLSADLLRANHLDAMAGEQYQTLLNQVTTLSVPEWEPSLVEQIQRYTTSE
notes: The His10 tag was removed with TEV protease; Only the CTD (G376-T466) is built in the atomic model; also called TsaC (proposed name); not shown: His10, N-terminal, cleaved; copies: 12
B1 was tested, and the “stoichiometry N” value was 12.
